Measured values taken from PMC5638582.

Target: Erv1 with a C-terminal histidine tag (Erv1-His) (S. cerevisiae) (UniProt P27882)
Assay: pull-down

UniProt P27882, sequence (P27882 whole entry): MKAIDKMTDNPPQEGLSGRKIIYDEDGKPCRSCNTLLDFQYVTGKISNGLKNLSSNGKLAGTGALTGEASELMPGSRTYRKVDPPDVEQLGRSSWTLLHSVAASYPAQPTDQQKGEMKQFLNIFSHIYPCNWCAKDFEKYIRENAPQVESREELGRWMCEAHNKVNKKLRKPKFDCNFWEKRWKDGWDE

fraction copurified: 10%
Substance: Osm1 (fumarate reductase), endogenous mitochondrial form (from UniProt P21375 33-501) (enzyme)
